B1: BTBD1 (parent)
chain: FVLGKGRGAAAAGGPQRIPAHRFV

Variants of: B1
Experiment: protein stability index of a GFP-peptide fusion (GPS, HEK-293T) (PSI 1-6); higher = more stable
Conditions: c terminus: a fixed tail appended
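Further: lentivirally expressed fusions sorted by FACS into six bins by GFP to DsRed ratio, PSI derived from sequencing read proportions per bin multiplied by bin number.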

Protein stability index of substitutions, site by site:
A20: Q 1.73, T 1.74, S 1.53, R 1.35
H21: Q 1.91, V 2.72, G 1.77, P 1.97, S 1.56, F 4.04, N 1.88, M 3.14, T 2.72, A 2.14, R 2.32, D 2.22, L 2.61
V24: M 3, L 1.73, G 1.56, R 1.8, K 2.12, P 2.47, Q 1.7, T 2.84, D 2.27, S 2.21
F23: E 2.04, Q 2.19, C 1.08, S 2.93, T 2.2, M 2.58, H 1.45, N 1.9, V 1.93, R 1.25, P 2.43, K 3.99, Y 1.71
R22: Q 1.84, G 1.08, D 2.35, V 2.14, L 2.3, N 2.53, M 4.76, K 1.82, S 1.36, H 1.72, T 5.22
